Experimental data reported in US20070071744A1 (published 2007).
Ends that are not written are not given here.

Key:
Test in all cases: PepSpot peptide array
peptide 95 = target: T1, peptide 95 (human)
T1 peptide: Ac-YLWSAPSDPLELV
Method: (§1) The peptides were synthesized on a cellulose membrane in a stepwise manner resulting in a defined arrangement (peptide array) and are covalently bound to the cellulose membrane. Binding assays were performed directly on the peptide array. In general an antigen peptide array is incubated with blocking buffer for several hours to reduce non-specific binding of proteins or antibodies. It follows the incubation with a primary (antigen peptide-binding) antibody in blocking buffer and an incubation with a horseradish peroxidase (HRP)-labelled secondary antibody, which binds selectively the primary antibody. Alternatively a HRP-labelled primary antibody in blocking buffer can be used.
(§2) A short T(Tween)-TBS-buffer washing directly after the incubation of the antigen peptide array with the secondary protein or antibody or the HRP-labelled primary antibody followed by the first chemiluminescence experiment is made to get an first overview which antigen peptides do bind the primary antibody. Several buffer washing steps follow (T-TBS- and TBS-buffer) to reduce false positive binding (unspecific antibody binding to the cellulose membrane itself). After these washing steps the final chemiluminescence analysis is performed. The data were analysed with an imaging system showing the signal intensity (Light units, LU) as single measurements for each peptide. In order to evaluate non-specific binding of secondary antibodies, incubations using the secondary antibody have to be performed in the absence of the primary antibody as control incubation.

peptide 9 = target: T2, peptide 9 (human)
T2 peptide: Ac-RVPAQSGPLPKPS
Method: as §1, §2

peptide 49 = target: T3, peptide 49 (human)
T3 peptide: Ac-SLPSDQLELVATG
Method: as §1, §2

peptide 10 = target: T4, peptide 10 (human)
T4 peptide: Ac-PAQSGPLPKPSLQ
Method: as §1, §2

peptide 113 = target: T5, peptide 113 (human)
T5 peptide: Ac-EATAELTVSFTNK
Method: as §1, §2

peptide 35 = target: T6, peptide 35 (human)
T6 peptide: Ac-DQAVLFIPAMKRS
Method: as §1, §2

peptide 129 = target: T7, peptide 129 (human)
T7 peptide: Ac-PAGPARQYYTKGN
Method: as §1, §2

peptide 59 = target: T8, peptide 59 (human)
T8 peptide: Ac-SAQPGPAVSSGGD
Method: as §1, §2

peptide 55 = target: T9, peptide 55 (human)
T9 peptide: Ac-GVFAKPSLSAQPG
Method: as §1, §2

peptide 108 = target: T10, peptide 108 (human)
T10 peptide: Ac-EPPSSVAEFSEAT
Method: as §1, §2

peptide 103 = target: T11, peptide 103 (human)
T11 peptide: Ac-TSVTPSRLPTEPP
Method: as §1, §2

peptide 5 = target: T12, peptide 5 (human, cysteine pairing not given here)
T12 peptide: Ac-FCLGLCLGRVPAQ
Method: as §1, §2

peptide 79 = target: T13, peptide 79 (human)
T13 peptide: Ac-PERWYRASFPIIT
Method: as §1, §2

peptide 120 = target: T14, peptide 120 (human)
T14 peptide: Ac-FTTETSRSITTSP
Method: as §1, §2

peptide 75 = target: T15, peptide 75 (human)
T15 peptide: Ac-GDPAPYKNPERWY
Method: as §1, §2

peptide 25 = target: T16, peptide 25 (human)
T16 peptide: Ac-QGPPGVDLYRLEK
Method: as §1, §2

peptide 82 = target: T17, peptide 82 (human)
T17 peptide: Ac-ASFPIITVTAAHS
Method: as §1, §2

peptide 17 = target: T18, peptide 17 (human)
T18 peptide: Ac-LPSSLVPLEKPVT
Method: as §1, §2

peptide 43 = target: T19, peptide 43 (human)
T19 peptide: Ac-RYRCSYQNGSLWS
Method: as §1, §2

peptide 73 = target: T20, peptide 73 (human)
T20 peptide: Ac-LYKEGDPAPYKNP
Method: as §1, §2

peptide 46 = target: T21, peptide 46 (human)
T21 peptide: Ac-QNGSLWSLPSDQL
Method: as §1, §2

peptide 128 = target: T22, peptide 128 (human)
T22 peptide: Ac-DSPAGPARQYYTK
Method: as §1, §2

peptide 97 = target: T23, peptide 97 (human)
T23 peptide: Ac-APSDPLELVVTGT
Method: as §1, §2

peptide 36 = target: T24, peptide 36 (human)
T24 peptide: Ac-AVLFIPAMKRSLA
Method: as §1, §2

peptide 126 = target: T25, peptide 126 (human)
T25 peptide: Ac-PKESDSPAGPARQ
Method: as §1, §2

peptide 27 = target: T26, peptide 27 (human)
T26 peptide: Ac-GVDLYRLEKLSSS
Method: as §1, §2

peptide 102 = target: T27, peptide 102 (human)
T27 peptide: Ac-TGTSVTPSRLPTE
Method: as §1, §2

peptide 42 = target: T28, peptide 42 (human)
T28 peptide: Ac-AGRYRCSYQNGSL
Method: as §1, §2

peptide 91 = target: T29, peptide 91 (human)
T29 peptide: Ac-YSFSSRDPYLWSA
Method: as §1, §2

peptide 20 = target: T30, peptide 20 (human)
T30 peptide: Ac-PLEKPVTLRCQGP
Method: as §1, §2

peptide 31 = target: T31, peptide 31 (human)
T31 peptide: Ac-KLSSSRYQDQAVL
Method: as §1, §2

peptide 40 = target: T32, peptide 40 (human)
T32 peptide: Ac-KRSLAGRYRCSYQ
Method: as §1, §2

peptide 37 = target: T33, peptide 37 (human)
T33 peptide: Ac-LFIPAMKRSLAGR
Method: as §1, §2

peptide 22 = target: T34, peptide 22 (human)
T34 peptide: Ac-PVTLRCQGPPGVD
Method: as §1, §2

peptide 23 = target: T35, peptide 23 (human)
T35 peptide: Ac-TLRCQGPPGVDLY
Method: as §1, §2

peptide 62 = target: T36, peptide 62 (human)
T36 peptide: Ac-AVSSGGDVTLQCQ
Method: as §1, §2

peptide 121 = target: T37, peptide 121 (human)
T37 peptide: Ac-TETSRSITTSPKE
Method: as §1, §2

peptide 16 = target: T38, peptide 16 (human)
T38 peptide: Ac-QALPSSLVPLEKP
Method: as §1, §2

peptide 105 = target: T39, peptide 105 (human)
T39 peptide: Ac-PSRLPTEPPSSVA
Method: as §1, §2

peptide 106 = target: T40, peptide 106 (human)
T40 peptide: Ac-RLPTEPPSSVAEF
Method: as §1, §2

peptide 93 = target: T41, peptide 93 (human)
T41 peptide: Ac-SRDPYLWSAPSDP
Method: as §1, §2

peptide 130 = target: T42, peptide 130 (human)
T42 peptide: Ac-GPARQYYTKGNGG
Method: as §1, §2

- LU (Light Units) (peptide 95): 120 LU
- LU (Light Units) (peptide 9): 1100 LU
- LU (Light Units) (peptide 49): 91 LU
- LU (Light Units) (peptide 10): 1330 LU
- LU (Light Units) (peptide 113): 135 LU
- LU (Light Units) (peptide 35): 186 LU
- LU (Light Units) (peptide 129): 139 LU
- LU (Light Units) (peptide 59): 155 LU
- LU (Light Units) (peptide 55): 810 LU
- LU (Light Units) (peptide 108): 12 LU
- LU (Light Units) (peptide 103): 50 LU
- LU (Light Units) (peptide 5): 26 LU
- LU (Light Units) (peptide 79): 119 LU
- LU (Light Units) (peptide 120): 250 LU
- LU (Light Units) (peptide 75): 95 LU
- LU (Light Units) (peptide 25): 56 LU
- LU (Light Units) (peptide 82): 149 LU
- LU (Light Units) (peptide 17): 160 LU
- LU (Light Units) (peptide 43): 64 LU
- LU (Light Units) (peptide 73): 33 LU
- LU (Light Units) (peptide 46): 1 LU
- LU (Light Units) (peptide 128): 66 LU
- LU (Light Units) (peptide 97): 147 LU
- LU (Light Units) (peptide 36): 125 LU
- LU (Light Units) (peptide 126): 119 LU
- LU (Light Units) (peptide 27): 100 LU
- LU (Light Units) (peptide 102): 160 LU
- LU (Light Units) (peptide 42): 41 LU
- LU (Light Units) (peptide 91): 67 LU
- LU (Light Units) (peptide 20): 175 LU
- LU (Light Units) (peptide 31): 211 LU
- LU (Light Units) (peptide 40): 139 LU
- LU (Light Units) (peptide 37): 1120 LU
- signal to noise ratio (peptide 37): ~4 ratio
- LU (Light Units) (peptide 22): 76 LU
- LU (Light Units) (peptide 23): 76 LU
- LU (Light Units) (peptide 62): 49 LU
- LU (Light Units) (peptide 121): 186 LU
- LU (Light Units) (peptide 16): 80 LU
- LU (Light Units) (peptide 105): 33 LU
- LU (Light Units) (peptide 106): 2 LU
- LU (Light Units) (peptide 93): 107 LU
- LU (Light Units) (peptide 130): 255 LU
B1: monoclonal antibody hGP 5C4 (antibody, V domains shown)
VH: EVKLQESGGGLVQPGRSLKLSCTASGFTFSDYFMSWVRQAPTRGLEWVASISSGGASAYWRDSVKGRFTISRDNAKSALYLQMDSLRSEDTATYFCARGELDFDYWGQGVMVAVSS
VL: ADPNSTLLSASVGDRVTLNCTASQNVYKNLAWYQQKLGEAPRLLLYSANSQTGIPSRFSGSGSGPDFTLTISSLQPEDVASYFCQQYYSGNTFGAGTKLELKR
notes: Rat hybridoma antibody (Lou/C rats), heavy chain gamma 2a, light chain kappa; also called ab 5C4; anti-GPVI mAb 5C4
